Source: patent US8951792B2, “Methods for making definitive endoderm hepatocyte (DE-hep) progenitor cells” (Cellartis AB, priority 2007, dated 2015)

B1: Activin B (protein, UniProt P09529 293-407, looked up)
Inhibin beta B chain: GLECDGRTNLCCRQQFFIDFRLIGWNDWIIAPTGYYGNYCEGSCPAYLAGVPGSASSFHTAVVNQYRMRGLNPGTVNSCCIPTKLSTMSMLYFDDEYNIVKRDVPNMIVEECGCA
B2: Activin A (protein, UniProt P08476 311-426, looked up)
Inhibin beta A chain: GLECDGKVNICCKKQFFVSFKDIGWNDWIIAPSGYHANYCEGECPSHIAGTSGSSLSFHSTVINHYRMRGHSPFANLKSCCVPTKLRPMSMLYYDDGQNIIKKDIQNMIVEECGCS
notes: TGF-beta family member used at 100 ng/ml to induce definitive endoderm

Legend:
hESC line SA002 = test: Substituting Activin A with Activin B for induction of endoderm, real-time PCR; assay type: cell-based, human; conditions: 100 ng/ml with 5 ng/ml bFGF, 5 days
Method: Undifferentiated hESC line SA002 were exposed to either activin A (100 ng/ml) or activin B (100 ng/ml) in the presence of 5 ng/ml bFGF for 5 days and analyzed for gene expression.
mRNA expression of Foxa2, Sox17, CXCR4, Sox7, CDX2, MT was measured by real-time PCR using the ABI/TaqMan method. In short, RNA was isolated from the cell cultures by using Qiagen's RNeasy system. cDNA was synthesized by using the ABI high capacity cDNA synthesis kit. RT-PCR was performed in a ABI 7500 by using TaqMan probe. The expression level was normalized to CREBBP expression.

hBS cells = test: Sox17/Sox7 immunostaining of induced definitive endoderm; assay type: cell-based, human; conditions: after 4 days in Activin A
Excerpt: We used Activin A, and Activin A in combination with Wnt3a and/or FGF2 to generate DE. After 4 to 5 days in Stage 1 the hBS cell colony differentiated and genetic markers for early DE were examined using quantitative real-time real time-PCR (Q-PCR). Activin A induced a strong wave of early endoderm at day 3 to 5, and was highlighted by high expression levels of Sox17, HNF3beta (HNF3b or HNF3b) and Cxcr4 expression (FIG. 4) and then reduced to near baseline levels (data not shown). […] Furthermore they up regulate early liver markers like AFP or AAT. At this early stage in differentiation and development, this indicates the presence of extraembryonic endoderm (E×E) in intrinsically differentiating colonies (FIGS. 5 and 10). The expression data were confirmed by co-staining of Sox17/Sox7, Sox17/Cxcr4, Sox17/Oct4, Sox7/HNF3b (data not shown). […] The changes of gene expression after Activin A treatment were associated to morphological changes and distinct differentiation pattern of the colonies (FIG. 2). After 4 to 5 days induction with Activin A containing medium cells gathered together and formed a ring of epithelial cells around the colony. […]
Activin A induces definitive endoderm detected by a combination of Sox17+/Sox7-, 80-90% of the total cells in a Activin A or Activin A/FGF2 treated culture are estimated to be Sox17 positive and negative for Sox7 (manual counting in microscope). […]

Molecule	extraembryonal (ExE) markers Sox7, CDX2 and MT compared to activin A (hESC line SA002)	mRNA expression of endodermal markers Foxa2, Sox17 and CXCR4 compared to activin A (hESC line SA002)	remaining cells Sox17 positive (hBS cells)
B1	the same or lower	either the same or even higher	
B2			more than 70%
